Test results as given in the DeepSol protein solubility set.

Test: soluble on expression in E. coli; label from the status in PepcDB or PDB records

Sequence	soluble on expression in E. coli
MSDDALSRIAAALERMSPPPMPAPDFSAVDAFAWHTSPDRLEPVPRVARVDLSLLVGVNRARDILLDNTEHFARGLPANNALLWGSRGMGKSSLVKAIHAAVVAKGLPLKIVELSREDLPSVQRLLKHLRGAPFRFILFCDDLSFSHDDQHYKSLKAVLDGGIEGRPENVILYATSNRRHLMPRDMIENERSTAISPSEAVEEKVSLSDRFGLWLGFHPCSQDEYLEMIRGYCAAHGLSVAEEELRAEAIEWQATRGARSGRVAWQFFTDLAARHGVALLEHHHHHH	not soluble
MKKGIDIGGTFIKVLWEDGKKEKHYIKDLKKDREALMEKIREVIKAGNPSGVGIAVAGFTSLNGIVYKSPNIPALDKTDFRKVLEDINIPFVVGNDVNLGAFGEWYYDYRDSKILLLVAVGTGLGTGLVYKGEVFFGVCGSALEMGHHTVKKGGELCNCGRKGCWEAYCSSYAIEREYKKLTGRTLKDYEIAEKAKEGEEEALKVVESFKDYLITGLMNGVHIFNPDRIVLAGGVIETFKEFLRDVPEKVKEISEELPALCLKISFSRAGEFMGARGALAYALKYLLEHHHHHH	soluble
MASRRELKKNVNYIAGELFTECLINSMFIPGTDKAKADELMAEVLRMQDEFVSRISHTEPGNVKGFYKKFRVDFNAKVNEIIEAIGKLN	not soluble
QPLGGESICSARAPAKYSITFTGKWSQTAFPKQYPLFRPPAQWSSLLGAAHSSDYSMWRKNQYVSNGLRDFAERGEAWALMKEIEAAGEALQSVHEVFSAPAVPSGTGQTSAELEVQRRHSLVSFVVRIVPSPDWFVGVDSLDLCDGDRWREQAALDLYPYDAGTDSGFTFSSPNFATIPQDTVTEITSSSPSHPANSFYYPRLKALPPIARVTLLRLRQSPR	soluble
MPTPFDVTILGGGLAGRLCAWQLAQTGVPPARIAVVERGARDGSGSAAYVAAAMLAPLAEAAVADRFVVELGLASLTLWRDWLPMLRTPVFFQQAGTLVVWHPADRGEASLFANHVRAATPPERIAADLRAVDAEGIGTLEPALAQRFSQGLYLAGEGQLDNRAVLDALATELEALGVQLRWNTAVADPHPQALAAAGLGARLVLDCRGLGAQPQWPQLRGLRGEVARIHAPDVTLTRPVRMLHPRYPIYIAPKPGHVYVIGATEIESDDMSPVSVRSTLELLSAAYAVHPAFGEARVLELCTQCRPTLPDHRPAIRWDGAGTLSVNGLYRHGYMIAPAVAQAAVAAAHALLDGRAIDAPASAWPGLFAAPASPEPVLPLEHHHHHH	soluble
GMMQKPITEIIIVGGGTAGWITAGLLAAEHNVDKGVLAHSPKLNITLIESPDVATIGVGEGTWPSMRSTLSKIGIDENDFIRQCDASFKQGSRFINWCKDPQSNVADSYLHPFSLPHGHQELDLCPYWLPHAEQVSFAEAVCSQQVLTQLGLAPKSIVTAQYHFQNNYGYHLNAAKFSQLLTEHCTQKLGVTHIRDHVSQIINNQHGDIEKLITKQNGEISGQLFIDCTGAKSLLLGEHLQVPFLSQKSVLFNDRALAIQVPYSDANSPIASCTHSTAQPNGWIWDIGLPTRKGVGYVYSSSHTNDIDAQKTLFNYLGVDGAAADKLEPRQLAINPGYRAKCWQNNCIAIGMAAGFIEPLEASALALIEWTASTLAQQLPPNRMVMDTISARVNERYQQHWQQIIDFLKLHYVISQRQEDRYWRDHRESNSIPDSLQAMLELWRYQTPSQQDISYKEALFPAASFQYVLYGMSFNTQLPTHVKPSMQQLAQRLFNDNQQRTQALSKNLPTNRELLDKVAQYGFPKL	soluble
MEQRRVTDFFARRRPGPPRIAPPKLACRTPSPARPALRAPASATSGSRKRARPPAAPGRDQARPPARRRLRLSVDEVSSPSTPEAPDIPACPSPGQKIKKSTPAAGQPPHLTSAQDQDTISELASCLQRARELGARVRALKASAQDAGESCTPEAEGRPEEPCGEKAPAYQRFHALAQPGLPGLVLPYKYQVLAEMFRSMDTIVGMLHNRSETPTFAKVQRGVQDMMRRRFEERNVGQIKTVYPASYRFRQERSVPTFKDGTRRSDYQLTIEPLLEQEADGAAPQLTASRLLQRRQIFSQKLVEHVKEHHKAFLASLSPAMVVPEDQLTRWHPRFNVDEVPDIEPAALPQPPATEKLTTAQEVLARARNLISPRMEKALSQLALRSAAPSSPGSPRPALPATPPATPPAASPSALKGVSQDLLERIRAKEAQKQLAQMTRCPEQEQRLQRLERLPELARVLRSVFVSERKPALSMEVACARMVGSCCTIMSPGEMEKHLLLLSELLPDWLSLHRIRTDTYVKLDKAADLAHITARLAHQTRAEEGL	soluble
MGSDKIHHHHHHMNEVIENVKEYYGKILHSTADLQSKACCCSPDSMPKEVKKALIFIADEVINRYYGCGSPLPPLLEGMTVLDLGCGSGRDVYVAAQLVGEHGRVIGVDMTQEQLDVAKKYEDEQRQRFGYAKSNVKFLSGYIEDLRAAGISDSSVDIVISNCVVNLSPDKEKVFAEIWRVLKPGGELYFSDVFADRRIPEYLAADPVLRGECIGGALYYEDFRRIMQRVGFTDFRYKSIRNIDLDNEAIIEKVGFANFTERTVRAFKLDDLEDICEDYGQIAVYNGSIASSPHFFDLDDHHRFFTGKPLLVCGNTAAMLAKTRFASAFRVIGNRSTHYGVFGVCGGKSETNCFDTGSSCGC	not soluble
MGSDKIHHHHHHMTVTILHEANSIDTDYVKRARLISDKFLELIILPTEQCNFRCTYCYEDFSIGRMQPETIAGIKAILDKRCPNLSYLNLAWFGGEPLVAKNIVLDISEYALSLVSKYPHLHYSSNMTTNGYLLDLNTASALANVGVTKYQISLDGPREIHNQSRIRADGKSTFERIWTNLLAIRDSSLPIYINLRLHFTIDTVKLIDPLLEDIKREFLPDSRFSVYFKSIERLGGTNDASIKIYSESEKNTAIKTLEAKLFGEKLQSPQNATLPDDYVCYASRPNSLVIRANGSVGKCTVALSDERNNIGTLRTDGRLDLIPGRFAPWVRGIQTLDPDVLGCPLVSLPTSDEIATNLQTKALAV	not soluble
MGSSTSTPAPPPKKNKPEGRKADNQILNSYQKSIVRNAWRHMSQKGPSNCGSTITRRMMARKSTIGDILDRSTLDYHNLQIVEFLQKVMQSLDEPDKISKLCQEIGQKHAKYRRSKGMKIDYWDKLGEAITETIREYQGWKIHRESLRAATVLVSYVVDQLRFGYSRGLHVQGSRETKEDDEE	not soluble
MGSDKIHHHHHHMAYRDQSLGELAIAIPRATKLFRELNLDFCCGGKQTLSRAAGKKDLNIDELEAQLEKLAAQPSDARDWREAPLADIIAYIIPRFHDRHREQLPELILMAKKVERVHHDKADCPHGLANQLTAIYNELSQHMMKEERILFPMIGQGMGANAAAPISVMEHEHDDAGRDVEVVKELTNGVVPPEGACNTWRALYSGINEFITDLMEHIHLENNLLFPRALRGE	not soluble
MAHHHHHHMSCRRFHKVLQANEEENEHAREAFLASWRSEYQQFLQSKLAALVWHVEHHCRSHVTPQTATSMACGEVPRMKVATTAPNSTTTASTNSNSAMMAEDAEQHDACNVLAHKQNRRTTLPSHFFLEQTPTSMPFYPREFIVEKEAQMFRQTNSPFTVGETPHGSQHSRTEINASTATVVPLPSVHKKETADRNSEKDDDRTAILAVSPSPRQISMHSPSQIEDDGSLDASLSPAATVAVTNVLTRTPGPAVQLQKMLPTEEVSKANLRKTIARLYSESVDTRSSWSDTWSQKKQRAASLLPPPSSASHMMHLKTMHVSHGTPCENMEASRNDMLSKKQLICELRRLYGLEDER	soluble
MPVDKNLRDLEPGIHTDLEGRLTYGGYLRLDQLLSAQQPLSEPAHHDEMLFIIQAQTSELWLKLLAHELRAAIVHLQRDEVWQCRKVLARSKQVLRQLTEQWSVLETLTPSEYMGFRDVLGPSSGFQSLQYRYIEFLLGNKNPQMLQVFAYDPAGQARLREVLEAPSLYEEFLRYLARFGHAIPQQYQARDWTAAHVADDTLRPVFERIYENTDRYWREYSLCEDLVDVETQFQLWRFRHMRTVMRVIGFKRGTGGSSGVGFLQQALALTFFPELFDVRTSVGVDNRPPQGSADAGKRLEHHHHHH	soluble
MPVNATGVSFSSFGISYHKDNSFRGTIRGKNDEVVKCSMGERSIRFNVNKFSGCILETVSRQSTKDIHGWVSDERTVYPSRVINQEIDNCCLQKNAKISSEERKMVFSLVSKEFELTLDVKAAQSSINHIIIGNASFGKKMDALCDGMSRAVKNSTTDYIANVLADKFYQKHIAPGVDIVKLRNEIPGYMSRVIQG	not soluble
MTVDPASHITIPEADLARLRHCNHHDPHGFYGWHETEAGSVIRTRQVGATQVNLLIDDTSHVMTPIGDDIFAIDLGHRERADYRLEVTWPDQEPQVKADPYYFLPTVG	not soluble
